This is an account of results in paper PMC3790809 (2013).

For orientation: Kd means the free concentration of one partner at which half of the binding sites on the other are occupied at equilibrium, for simple one-to-one binding. Read a high Kd as weaker binding.

Assay [1] addresses untagged YsaL (YE3555). The assay is described as follows: SPR. (In general: Surface plasmon resonance follows binding to a sensor surface in real time, without labels.)
Assay [2] deals with untagged YsaL (YE3555). The assay is described as follows: SPR; refolded YsaN.
The target of assay [3] is untagged YsaL (YE3555). The assay is described as follows: SPR. The source holds these as a separate data set.
For assay [4], the target named is untagged YsaL (YE3555). The assay is described as follows: SPR. This is another data set of the same source.

B1: YsaNΔ(426–430)-His (domain or fragment)
chain: MNLFDSCAHPSRIHGCLLEAPLHGVFIGEICLIERDLCQPEVIAKAQVVGFKEGQTILSLIGRAQGLTREVVIRPTGQPFVFEMGEHLAGKIYNAAGEEVGVLSNATASSEPLFTTLCRVDNPPVSVNLRRPVTTPLVTGVRAIDGLLTCGQGQRMGIFAAAGSGKTSLMSMIMNHAVADICVIALIGERGREVTEFIHELQTSPRAAQTILVYATSDSPAVERCNAALLATAMAEYFRDQGKDVLLFVDSMTRYARALRDVALAAGELPARRGYPASVFEQLPLLLERPGALQHGSITAFYTVLLESEEESDPIGDEIRSIIDGHIYLSAQLAGRGHYPAIDILHSISRVFSKVTTPQHRQDAAKTRDMLGRLAQIQLYLDLGEYQRGENTDNDHALDNRDVIEGFLQQAMEEPGEFSTTLNQL
In the assay with untagged YsaL (YE3555) [1], B1 displayed a Kd of 114 nM. That is a sub-micromolar value.

B2: YsaNflr-His (full length YsaN, refolded) (enzyme)
chain: MNLFDSCAHPSRIHGCLLEAPLHGVFIGEICLIERDLCQPEVIAKAQVVGFKEGQTILSLIGRAQGLTREVVIRPTGQPFVFEMGEHLAGKIYNAAGEEVGVLSNATASSEPLFTTLCRVDNPPVSVNLRRPVTTPLVTGVRAIDGLLTCGQGQRMGIFAAAGSGKTSLMSMIMNHAVADICVIALIGERGREVTEFIHELQTSPRAAQTILVYATSDSPAVERCNAALLATAMAEYFRDQGKDVLLFVDSMTRYARALRDVALAAGELPARRGYPASVFEQLPLLLERPGALQHGSITAFYTVLLESEEESDPIGDEIRSIIDGHIYLSAQLAGRGHYPAIDILHSISRVFSKVTTPQHRQDAAKTRDMLGRLAQIQLYLDLGEYQRGENTDNDHALDNRDVIEGFLQQAMEEPGEFSTTLNQLRELAN
In the assay with untagged YsaL (YE3555) [2], B2 returned a Kd of 42 nM.

B3: YsaNΔ(1–5)-His (domain or fragment)
chain: SCAHPSRIHGCLLEAPLHGVFIGEICLIERDLCQPEVIAKAQVVGFKEGQTILSLIGRAQGLTREVVIRPTGQPFVFEMGEHLAGKIYNAAGEEVGVLSNATASSEPLFTTLCRVDNPPVSVNLRRPVTTPLVTGVRAIDGLLTCGQGQRMGIFAAAGSGKTSLMSMIMNHAVADICVIALIGERGREVTEFIHELQTSPRAAQTILVYATSDSPAVERCNAALLATAMAEYFRDQGKDVLLFVDSMTRYARALRDVALAAGELPARRGYPASVFEQLPLLLERPGALQHGSITAFYTVLLESEEESDPIGDEIRSIIDGHIYLSAQLAGRGHYPAIDILHSISRVFSKVTTPQHRQDAAKTRDMLGRLAQIQLYLDLGEYQRGENTDNDHALDNRDVIEGFLQQAMEEPGEFSTTLNQLRELAN
Consider B3, for which the Kd with untagged YsaL (YE3555) [3] turned out to be 500000 nM.

B4: YsaNΔ(411–430)-His (domain or fragment)
chain: MNLFDSCAHPSRIHGCLLEAPLHGVFIGEICLIERDLCQPEVIAKAQVVGFKEGQTILSLIGRAQGLTREVVIRPTGQPFVFEMGEHLAGKIYNAAGEEVGVLSNATASSEPLFTTLCRVDNPPVSVNLRRPVTTPLVTGVRAIDGLLTCGQGQRMGIFAAAGSGKTSLMSMIMNHAVADICVIALIGERGREVTEFIHELQTSPRAAQTILVYATSDSPAVERCNAALLATAMAEYFRDQGKDVLLFVDSMTRYARALRDVALAAGELPARRGYPASVFEQLPLLLERPGALQHGSITAFYTVLLESEEESDPIGDEIRSIIDGHIYLSAQLAGRGHYPAIDILHSISRVFSKVTTPQHRQDAAKTRDMLGRLAQIQLYLDLGEYQRGENTDNDHALDNRDVIEGFLQQ
In the assay with untagged YsaL (YE3555) [4], B4 showed a Kd of 260 nM.
